US20090130105A1 (Biogen, published 2009)

What was measured:
human IGF-1R(1-903)-Fc [1] = molecular target: T1, human IGF-1R(1-903)-Fc (human, UniProt P08069 31-933); assay: IGF-2 blocking ELISA: antibody titrated in 640 nM IGF-2 His on biotinylated hIGF-1R-Fc on streptavidin plates, bound ligand detected with anti-His-HRP
T1 construct: also called hIGF-1R-Fc; SDWT; not shown: human IgG1 Fc, C-terminal tag

[2] = molecular target: T2, hIGF-1R-Fc mutant SD102 (E459A, S460A) (human, UniProt P08069 31-933); assay: SPR, Fab over captured mutant
T2 construct: not shown: human IgG1 Fc, C-terminal tag
Experimental: (§1) Surface plasmon resonance (SPR) experiments were performed on a Biacore 3000 instrument set to 25° C. […] The antibody sensorchip surfaces were prepared by injecting each antibody (diluted 100 μg/mL in 10 mM Acetate, pH 4.0) over EDC/NHS-activated sensorchip surfaces according to the standard protocol of the manufacturer. […] Both hIGF-1R-Fc and mIGF-1R-Fc proteins oligomerize due to the incorporation of two separate homodimeric regions (IGF-1R and IgG1-Fc). […] After, completion of the receptor-Fc loading step, flow rates were elevated to 5 μl/min. […] Dissociation was measured for 7 minutes after the antibody injections were complete. Finally, the flow rate was elevated to 30 μL/min and the chip surfaces were regenerated by 2×10 μL injections of 0.1 M glycine, pH 2.

[3] = molecular target: T3, hIGF-1R-Fc mutant SD108 (H480E) (human, UniProt P08069 31-933); assay: SPR, Fab over captured mutant
T3 construct: not shown: human IgG1 Fc, C-terminal tag
Experimental: as §1

[4] = molecular target: T4, hIGF-1R-Fc mutant SD113 (E570A, I571T) (human, UniProt P08069 31-933); assay: SPR, Fab over captured mutant
T4 construct: not shown: human IgG1 Fc, C-terminal tag
Experimental: as §1

[5] = molecular target: T5, hIGF-1R-Fc mutant SD103 (D461A, V462T) (human, UniProt P08069 31-933); assay: SPR, Fab over captured mutant
T5 construct: not shown: human IgG1 Fc, C-terminal tag
Experimental: as §1

[6] = molecular target: T6, hIGF-1R-Fc mutant SD109 (Y482A, R483W) (human, UniProt P08069 31-933); assay: SPR, Fab over captured mutant
T6 construct: not shown: human IgG1 Fc, C-terminal tag
Experimental: as §1

[7] = molecular target: T7, hIGF-1R-Fc mutant SD104 (H464A) (human, UniProt P08069 31-933); assay: SPR, Fab over captured mutant
T7 construct: not shown: human IgG1 Fc, C-terminal tag
Experimental: as §1

[8] = molecular target: T8, hIGF-1R-Fc mutant SD011 (G285S, S286T) (human, UniProt P08069 31-933); assay: SPR: receptor-Fc captured on M13-C06 chip, then M13-C06 Fab; relative to wild type
T8 construct: not shown: human IgG1 Fc, C-terminal tag
Experimental: (§2) After, completion of the receptor-Fc loading step, flow rates were elevated to 5 μl/min. […] At the end of each sensorgram, the flow rate was elevated to 30 μl/min and the chip surface was regenerated by 2×10 μL injections of 0.1 M glycine, pH 2.

human IGF-1R(1-903)-Fc [9] = molecular target: T1, human IGF-1R(1-903)-Fc; assay: as above
Experimental: as §2

[10] = molecular target: T9, hIGF-1R-Fc mutant SD005 (A217T) (human, UniProt P08069 31-933); assay: as above
T9 construct: not shown: human IgG1 Fc, C-terminal tag
Experimental: as §2

[11] = molecular target: T10, hIGF-1R-Fc mutant SD010 (G271D) (human, UniProt P08069 31-933); assay: as above
T10 construct: not shown: human IgG1 Fc, C-terminal tag
Experimental: as §2

[12] = molecular target: T11, hIGF-1R-Fc mutant SD016 (D531Q, V532N) (human, UniProt P08069 31-933); assay: as above
T11 construct: not shown: human IgG1 Fc, C-terminal tag
Experimental: as §2

[13] = molecular target: T12, hIGF-1R-Fc mutant SD009 (E264K) (human, UniProt P08069 31-933); assay: as above
T12 construct: not shown: human IgG1 Fc, C-terminal tag
Experimental: as §2

[14] = molecular target: T13, hIGF-1R-Fc mutant SD008 (S257F) (human, UniProt P08069 31-933); assay: as above
T13 construct: not shown: human IgG1 Fc, C-terminal tag
Experimental: as §2

[15] = molecular target: T14, hIGF-1R-Fc mutant SD006 (A227K) (human, UniProt P08069 31-933); assay: as above
T14 construct: not shown: human IgG1 Fc, C-terminal tag
Experimental: as §2

[16] = molecular target: T15, hIGF-1R-Fc mutant SD014 (K412A, A413Q) (human, UniProt P08069 31-933); assay: as above
T15 construct: not shown: human IgG1 Fc, C-terminal tag
Experimental: as §2

[17] = molecular target: T16, hIGF-1R-Fc mutant SD007 (N237G) (human, UniProt P08069 31-933); assay: as above
T16 construct: not shown: human IgG1 Fc, C-terminal tag
Experimental: as §2

[18] = molecular target: T17, hIGF-1R-Fc mutant SD003 (T188F) (human, UniProt P08069 31-933); assay: as above
T17 construct: not shown: human IgG1 Fc, C-terminal tag
Experimental: as §2

[19] = molecular target: T18, hIGF-1R-Fc mutant SD019 (E739W, L741F) (human, UniProt P08069 31-933); assay: as above
T18 construct: not shown: human IgG1 Fc, C-terminal tag
Experimental: as §2

[20] = molecular target: T19, hIGF-1R-Fc mutant SD012 (E303G) (human, UniProt P08069 31-933); assay: as above
T19 construct: not shown: human IgG1 Fc, C-terminal tag
Experimental: as §2

T1 sequence (P08069 31-933): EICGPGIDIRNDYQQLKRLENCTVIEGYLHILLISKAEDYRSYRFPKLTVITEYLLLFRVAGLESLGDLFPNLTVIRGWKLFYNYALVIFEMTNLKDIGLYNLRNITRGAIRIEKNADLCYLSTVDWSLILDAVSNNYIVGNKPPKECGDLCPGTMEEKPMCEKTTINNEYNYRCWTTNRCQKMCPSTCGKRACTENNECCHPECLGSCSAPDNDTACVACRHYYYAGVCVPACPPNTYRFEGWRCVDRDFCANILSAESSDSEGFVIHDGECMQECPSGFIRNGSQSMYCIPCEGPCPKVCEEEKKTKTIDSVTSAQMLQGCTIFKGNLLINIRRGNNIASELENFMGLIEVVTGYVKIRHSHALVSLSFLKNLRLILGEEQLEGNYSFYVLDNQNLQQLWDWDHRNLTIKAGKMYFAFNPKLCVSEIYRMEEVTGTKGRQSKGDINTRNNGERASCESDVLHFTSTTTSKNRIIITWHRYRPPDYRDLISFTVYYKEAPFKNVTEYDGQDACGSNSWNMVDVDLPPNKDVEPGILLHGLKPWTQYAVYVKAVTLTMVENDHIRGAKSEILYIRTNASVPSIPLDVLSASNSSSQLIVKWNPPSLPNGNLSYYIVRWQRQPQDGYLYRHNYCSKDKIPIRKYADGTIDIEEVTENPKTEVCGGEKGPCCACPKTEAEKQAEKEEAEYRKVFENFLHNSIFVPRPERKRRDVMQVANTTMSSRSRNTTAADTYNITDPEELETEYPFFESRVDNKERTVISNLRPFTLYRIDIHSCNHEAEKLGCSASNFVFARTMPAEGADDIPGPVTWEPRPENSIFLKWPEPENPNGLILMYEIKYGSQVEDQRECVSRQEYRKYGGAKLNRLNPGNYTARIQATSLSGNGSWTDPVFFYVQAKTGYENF
T11 sequence (P08069 31-933 D561Q/V562N): as the sequence (P08069 31-933) above, with D531Q, V532N counted along it
T8 sequence (P08069 31-933 G315S/S316T): as the sequence (P08069 31-933) above, with G285S, S286T counted along it
T19 sequence (P08069 31-933 E333G): as the sequence (P08069 31-933) above, with E303G counted along it
T3 sequence (P08069 31-933 H510E): as the sequence (P08069 31-933) above, with H480E counted along it
T15 sequence (P08069 31-933 K442A/A443Q): as the sequence (P08069 31-933) above, with K412A, A413Q counted along it
T2 sequence (P08069 31-933 E489A/S490A): as the sequence (P08069 31-933) above, with E459A, S460A counted along it
T18 sequence (P08069 31-933 E769W/L771F): as the sequence (P08069 31-933) above, with E739W, L741F counted along it
T13 sequence (P08069 31-933 S287F): as the sequence (P08069 31-933) above, with S257F counted along it
T17 sequence (P08069 31-933 T218F): as the sequence (P08069 31-933) above, with T188F counted along it
T5 sequence (P08069 31-933 D491A/V492T): as the sequence (P08069 31-933) above, with D461A, V462T counted along it
T4 sequence (P08069 31-933 E600A/I601T): as the sequence (P08069 31-933) above, with E570A, I571T counted along it
T9 sequence (P08069 31-933 A247T): as the sequence (P08069 31-933) above, with A217T counted along it
T12 sequence (P08069 31-933 E294K): as the sequence (P08069 31-933) above, with E264K counted along it
T10 sequence (P08069 31-933 G301D): as the sequence (P08069 31-933) above, with G271D counted along it
T6 sequence (P08069 31-933 Y512A/R513W): as the sequence (P08069 31-933) above, with Y482A, R483W counted along it
T16 sequence (P08069 31-933 N267G): as the sequence (P08069 31-933) above, with N237G counted along it
T7 sequence (P08069 31-933 H494A): as the sequence (P08069 31-933) above, with H464A counted along it
T14 sequence (P08069 31-933 A257K): as the sequence (P08069 31-933) above, with A227K counted along it

B1: M13-C06 antibody (antibody, V domains shown)
VH: EVQLLESGGGLVQPGGSLRLSCAASGFTFSIYRMQWVRQAPGKGLEWVSGISPSGGTTWYADSVKGRFTISRDNSKNTLYLQMNSLRAEDTAVYYCARWSGGSGYAFDIWGQGTMVTVSS
VL: DIQMTQSPLSLSASVGDRVTITCQASRDIRNYLNWYQQKPGKAPKLLIYDASSLQTGVPSRFGGSGSGTDFSFTIGSLQPEDIATYYCQQFDSLPHTFGQGTKLEIK
notes: Fully human full-length antibody (ATCC PTA-7444); also called M13.C06.G4.P.agly; M13-C06.G4P.agly
IC50 (read off the curve) (human IGF-1R(1-903)-Fc [1]): ~1 nM

B2: M13-C06 Fab (Fab, V domains shown)
VH: EVQLLESGGGLVQPGGSLRLSCAASGFTFSIYRMQWVRQAPGKGLEWVSGISPSGGTTWYADSVKGRFTISRDNSKNTLYLQMNSLRAEDTAVYYCARWSGGSGYAFDIWGQGTMVTVSS
VL: DIQMTQSPLSLSASVGDRVTITCQASRDIRNYLNWYQQKPGKAPKLLIYDASSLQTGVPSRFGGSGSGTDFSFTIGSLQPEDIATYYCQQFDSLPHTFGQGTKLEIK
notes: Fab made by enzymatic digestion of the IgG
binding result [2]: no binding (tested: up to 10 nM Fab)
binding result [3]: no binding (tested: up to 10 nM Fab)
binding result [4]: no binding (tested: up to 10 nM Fab)
binding result [5]: no binding (tested: up to 10 nM Fab)
binding result [6]: no binding (tested: up to 10 nM Fab)
binding result [7]: no binding (tested: up to 10 nM Fab)
Biacore Relative RUmax [8]: 1.8
Biacore Relative RUmax (human IGF-1R(1-903)-Fc [9]): 1
Biacore Relative RUmax [10]: 0.9
Biacore Relative RUmax [11]: 0.8
Biacore Relative RUmax [12]: 2
Biacore Relative RUmax [13]: 0.6
Biacore Relative RUmax [14]: 1.5
Biacore Relative RUmax [15]: 1.7
Biacore Relative RUmax [16]: 0.6
Biacore Relative RUmax [17]: 1.3
Biacore Relative RUmax [18]: 1
Biacore Relative RUmax [19]: 1.9
Biacore Relative RUmax [20]: 0.3
